This is an account of results in PMC4664390.

For the experiment, the target named is CmbHLH2 (Chrysanthemum morifolium).
Sequence of CmbHLH2 (Chrysanthemum morifolium) (main, as listed by the source): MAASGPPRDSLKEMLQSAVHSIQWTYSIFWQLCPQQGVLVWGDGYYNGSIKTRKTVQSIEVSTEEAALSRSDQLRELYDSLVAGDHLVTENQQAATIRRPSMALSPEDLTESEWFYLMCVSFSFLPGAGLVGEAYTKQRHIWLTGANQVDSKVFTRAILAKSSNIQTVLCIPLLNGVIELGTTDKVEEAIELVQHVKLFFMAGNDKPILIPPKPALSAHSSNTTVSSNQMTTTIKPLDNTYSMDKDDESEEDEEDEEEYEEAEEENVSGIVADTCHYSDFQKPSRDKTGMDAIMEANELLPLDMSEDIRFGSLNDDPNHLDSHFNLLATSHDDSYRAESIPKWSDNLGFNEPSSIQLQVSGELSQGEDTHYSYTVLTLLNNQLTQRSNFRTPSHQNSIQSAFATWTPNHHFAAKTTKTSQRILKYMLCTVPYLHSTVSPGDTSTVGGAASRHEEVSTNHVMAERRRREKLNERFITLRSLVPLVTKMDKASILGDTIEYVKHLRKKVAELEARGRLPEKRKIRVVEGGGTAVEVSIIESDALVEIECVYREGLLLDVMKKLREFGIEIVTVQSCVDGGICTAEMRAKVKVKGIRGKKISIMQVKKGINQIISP

Substance CmMYB6 (natural protein) gave a CmDFR promoter activity in dual luciferase assay (LUC/REN) in tobacco leaves on co-expression of CmbHLH2 with CmMYB6, relative to the empty vector set as one above 40 fold.
